This note sets out measurements from PMC7430652.

The assay has as its target 39S large mitoribosome subunit (mtLSU) (human (endogenous in HEK293T and 143B)). Description: co-sedimentation.

B1: GTPBP5 (natural protein)
chain: MAPARCFSARLRTVFQGVGHWALSTWAGLKPSRLLPQRASPRLLSVGRADLAKHQELPGKKLLSEKKLKRYFVDYRRVLVCGGNGGAGASCFHSEPRKEFGGPDGGDGGNGGHVILRVDQQVKSLSSVLSRYQGFSGEDGGSKNCFGRSGAVLYIRVPVGTLVKEGGRVVADLSCVGDEYIAALGGAGGKGNRFFLANNNRAPVTCTPGQPGQQRVLHLELKTVAHAGMVGFPNAGKSSLLRAISNARPAVASYPFTTLKPHVGIVHYEGHLQIAVADIPGIIRGAHQNRGLGSAFLRHIERCRFLLFVVDLSQPEPWTQVDDLKYELEMYEKGLSARPHAIVANKIDLPEAQANLSQLRDHLGQEVIVLSALTGENLEQLLLHLKVLYDAYAEAELGQGRQPLRW
For the molecule B1, the percent of total GTPBP5 co-sedimenting was 60%.
